# Test results: PMC11894533, “A virulent milRNA of Fusarium oxysporum f. sp. cubense impairs plant resistance by targeting banana AP2 transcription factor coding gene MaPTI6L”
# B1: MaEDS1 promoter GCC-box mutant probe (dsDNA)
# DNA 1: CCAACTCCTCCTCTCTCTGGACAAAAAACACAAACTCGTCTTGAAAACTCCGCGACAAA
# DNA 2: TTTGTCGCGGAGTTTTCAAGACGAGTTTGTGTTTTTTGTCCAGAGAGAGGAGGAGTTGG
# Biological target: MaPTI6L (Musa acuminata (Cavendish group cv. …, UniProt A0A804I776 1-300))
# Assay: EMSA; EMSA Kit (Beyotime) protocol; buffer, salt, pH and temperature not stated
# Settings: protein: recombinant; tags: MBP; label: FAM
# Sequence of MaPTI6L (Musa acuminata (A0A804I776 entry or part of it): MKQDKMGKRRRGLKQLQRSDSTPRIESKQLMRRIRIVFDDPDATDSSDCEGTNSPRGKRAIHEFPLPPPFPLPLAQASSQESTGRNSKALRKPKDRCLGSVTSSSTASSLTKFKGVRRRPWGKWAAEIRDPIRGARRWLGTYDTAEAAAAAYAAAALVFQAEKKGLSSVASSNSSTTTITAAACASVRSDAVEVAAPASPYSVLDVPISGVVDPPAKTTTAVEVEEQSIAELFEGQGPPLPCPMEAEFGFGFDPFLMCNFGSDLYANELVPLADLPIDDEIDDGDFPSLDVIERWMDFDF
binder,measurement,value
B1,binding result,no binding
